Data from the supplement of paper PMC9170038.

System: MS2 coat protein
Experiment: apparent KD of MS2 coat protein; designed switch direction (-1 OFF switch, 1 ON switch): -1; higher = weaker reporter binding
Procedure, shortened: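 An oligonucleotide input, 200 uM small-molecule ligand, or no input was present during titration of SNAP-549-labelled MS2 coat protein, which was doubled from 0.7 or 1.5 nM to 3 µM. Designed RNA switches had been transcribed on Illumina chips by stalled E. coli RNA polymerase. Apparent KD per design is the median over clusters of curves fitted to normalised cluster fluorescence.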

[1] = input ligand: microRNA oligo, concentration not stated
[2] = Eterna round: R95, input ligand: FMN 200 uM
[3] = Eterna round: R95, input ligand: microRNA oligo, concentration not stated
[4] = Eterna round: R95, input ligand: none

Row | Sequence | apparent KD of MS2 coat protein (input ligand: FMN 200 uM) [µM] | apparent KD of MS2 coat protein (input ligand: none) [µM] | apparent KD of MS2 coat protein [1] [µM] | apparent KD of MS2 coat protein [2] [µM] | apparent KD of MS2 coat protein [3] [µM] | apparent KD of MS2 coat protein [4] [µM]
1 | AAUUAGUCAGGAUAUACAUGAGGAUCACCCAUGUAAACUUUUAGUUUAAUUUGAAUGUGUAGAAGGGACAUUAA [Ex3 #48] (Eterna round: R97, puzzle: Exclusion 3) | 0.0254 | 0.0297 |  |  |  | 
2 | AAACCGGGCGCACCUCAGUCACAUGAGGAUCACCCAUGUUCUGAGGAUAUGCAUCCAAACGGAACGCAGAAGGCGGAACGUAAC [Bibidianer] (Eterna round: R96, puzzle: Exclusion NG 3) | 0.0105 | 0.013 | 0.00852 |  |  | 
3 | GGAUCGAGUGUGAGGAUAUACCUAUGGAAACAUAGGUAGAAGGCACAUGAGGAUCACCCAUGUGUUCCCGGUCC [Mat - Exclusion 4 - Eli Mod - D16] (Eterna round: R97, puzzle: Brourd's mod of Exclusion 4) | 0.485 | 0.0508 |  |  |  | 
4 | GUACUGAAGCUUUGCUUUAGUCGUACAUGAGGAUCACCCAUGUAGGAUAUGGUAGGCUUUGCUUACCAGAAGGACAGAGUGAUC [JL EXNG3 1.25] (Eterna round: R96, puzzle: Exclusion NG 3) | 0.0686 | 0.0853 | 0.0837 |  |  | 
5 | AACCUGAGGCAAAGCUUUAGGUGUACAUGAGGAUCACCCAUGUAGGAUAUGGUAGGCAAAGCUUACCAGAAGGACAUAAAGGUU [Mat - Exclusion NG 3 - Mod of JL - D45] (Eterna round: R96, puzzle: Exclusion NG 3) | 0.0814 | 0.0477 | 0.0364 |  |  | 
6 | UUUCGUGUGCGGGCUUUUUACAUGAGGAUCACCCAUGUCCUCUGCUUGUCUUGUCUUGGGCUUUUUUUGGGUUCGGG [-19.4, -42 kcal, A 8%] (Eterna round: R97, puzzle: Sensor, turn-off variant 1) | 0.56 | 0.836 |  |  |  | 
7 | UGAUCUAGCGGAGGAUAUACAUGAGGAUCACCCAUGUAUACUCUAUGACCGUAGUCGUGGAGCGUGUAGAAGGCCGCUAGAUCU [JL ENG2 3.76] (Eterna round: R96, puzzle: Exclusion NG 2) | 0.0146 | 0.0116 | 0.0091 |  |  | 
8 | GCGGACUUGAACGUGAGUUCAGAGACAUGAGGAUCACCCAUGUAGGAUAUCGAUUCGAAACGAAUCGAGAAGGGCAUGGUCCGC [JL denovo 14] (Eterna round: R96, puzzle: Exclusion NG 3) | 0.0374 | 0.0288 | 0.0213 |  |  | 
9 | CGUGACUCAGGAUAUCUAUAAUAUCACAUGAGGAUCACCCAUGUCCAGCGAAAGCUGGAGAGAGAAGGGAGUCACG [Fiskers Ex 5 - 36] (puzzle: Exclusion 5) |  |  |  | 0.0677 | 0.0673 | 0.0615
10 | CUUAGCCUAAAAUCACGCAAGCUCUUUGCUUGUCUUAAGACAUGAGGAUCACCCAUGUCCGGGCUGAACUUAUGGAA [Qugegele] (puzzle: Sensor v3, turn-off variant 2) |  |  |  | 0.0199 | 0.0249 | 0.021
11 | AUGAGACAUGAGGAUCACCCAUGUGAGGAUAUGUAUGGAUGGUGGAAAGAAUGAGAGAACAGAAGGCACGUAGA [JR_Exclu1_Sub062] (puzzle: Exclusion 1) |  |  |  | 0.122 | 0.109 | 0.231
12 | AUUCCACAUGAGGAUCACCCAUGUCAGGAUAUGCAUAGUCCUGCCACAUAGGACUAGCGCAGAAGGGAUCGGGC [Eternabot (L2) Solution 20] (Eterna round: R97, puzzle: Exclusion 1) | 0.0539 | 0.019 |  |  |  | 
13 | AAUAACAAGCCGAUCCUUUACAUGAGGAUCACCCAUGUGCUCGUCUUGUAAAGUACUAUCACGAAAGUGAUAGUACA (Eterna round: R97, puzzle: Sensor, turn-off variant 1) | 0.028 | 0.027 |  |  |  | 
14 | UUUUAACAUGAGGAUCACCCAUGUGAGGAUAUCGAAAUUUAUAUUAAUAUUUAUAUAUCGAGAAGGCACAUUUU [JMF 56] (puzzle: Exclusion 1) |  |  |  |  | 0.117 | 
15 | AACGACUGAGGAUAUACAUGAGGAUCACCCAUGUGUUGAAAUACGUGCUUGGUUAACUGUAGAAGGCAGAAAAU [Isxeen] (puzzle: Exclusion 3) |  |  |  | 0.0219 | 0.0128 | 0.014
16 | CGUGGCCAAGGAUAUGGGUAUCAUGACAUGAGGAUCACCCAUGUAUAGAGGAUCCAUAGCCCAGAAGGUGGUCCGG [Eternabot (L1) Solution 85] (Eterna round: R97, puzzle: Exclusion 5) | 0.044 | 0.017 |  |  |  | 
17 | AAUAACAAGCCGAUCCUCCACAUGAGGAUCACCCAUGUGUUCGUCUUGUAAAGUACUAUCACGAAAGUGAUAGUACA (Eterna round: R97, puzzle: Sensor, turn-off variant 1) | 0.023 | 0.0305 |  |  |  | 

Row | Sequence | apparent KD of MS2 coat protein (input ligand: FMN 200 uM) [µM] | apparent KD of MS2 coat protein (input ligand: none) [µM] | apparent KD of MS2 coat protein [1] [µM] | apparent KD of MS2 coat protein [2] [µM] | apparent KD of MS2 coat protein [3] [µM] | apparent KD of MS2 coat protein [4] [µM]
18 | AGCAUGCAGUAGGAUAUCGAUCCGCAAUAUGAACGAGAAGGGCUGACAUGAGGAUCACCCAUGUGCGUCCUAGG [jl-ex6-4.40 ViennaUCT mod] (Eterna round: R97, puzzle: Exclusion 6) | 0.0194 | 0.0202 |  |  |  | 
19 | AGAAGUAGUAACCGAUCCUACAUGAGGAUCACCCAUGUAGCAAGACGUGCACGCGAAGCUCGUCAGACUACCAGAUG [salish99_TOv1_r3_020] (puzzle: Sensor v3, turn-off variant 1) |  |  |  | 0.159 | 0.252 | 0.242
20 | AAACUAGUAGAGGAUAUUCCAGGCAGUGUUUGAGAAGAAGGCUACACAUGAGGAUCACCCAUGUGGCCUGGUGG [Riedbi] (puzzle: Exclusion 6) |  |  |  |  | 0.0128 | 
21 | UAAUACAAGUAGAGAUUCUACAUGAGGAUCACCCAUGUGCUCGUCUUAUAAAGUACUAUCACGAAAGUGAUAGUACU [Mat - Sensor v3 - turn-off var 1 - Eli Mod - D98] (puzzle: Sensor v3, turn-off variant 1) |  |  |  | 0.0183 | 0.192 | 0.0174
22 | GGUUCGUGAGGAUAUGUGGCUUCGAUCGUGCGAAGAAGGCUACAGAAGGCACAUGAGGAUCACCCAUGUUCGUC [salish99_ex4_r4_228] (Eterna round: R97, puzzle: Exclusion 4) | 0.241 | 0.0621 |  |  |  | 
23 | GAUUCAUAUGACUUUCUAUACAUGAGGAUCACCCAUGUUUGUUUUUUUUGUUUUUCGCUUUUUAGUCGUCUUAUUAU [Gravy 3] (Eterna round: R97, puzzle: Sensor, turn-off variant 1) | 0.0196 | 0.019 |  |  |  | 
24 | UAUUAGUGAGGAUAUGAGUCGUAGAACAAUAGUACUACGUCUCAGAAGGCACAUGAGGAUCACCCAUGUUCCUU [Fiskers Ex 4 Super Stable 44 mod 35] (puzzle: Exclusion 4) |  |  |  |  | 0.0136 | 
25 | UUUUUGUGAGGAUAUUAGUAGUAAAUAAAUAAAAUUACUACUGAGAAGGCACAUGAGGAUCACCCAUGUUCCUC [salish99_ex4_r3_068] (puzzle: Exclusion 4) |  |  |  |  | 0.0332 | 
26 | UCCAAGCGGAAGCAAUGAAACAUGAGGAUCACCCAUGUCCCGGUGGUCAUUCACCCAAGCUUUUUGUAGUCAACCUU [Eternabot (L1) Solution 42] (Eterna round: R97, puzzle: Sensor, turn-off variant 1) | 0.249 | 0.297 |  |  |  | 
27 | UGUACUAUGCGUGCUGACAUGCGUAGUGCAGCAGGUGUAACAUGAGGAUCACCCAUGUCCUCAUUUGCUCGUCUUAU [SL-sv3-2.06 JL mod] (puzzle: Sensor v3, turn-off variant 2) |  |  |  | 0.194 | 0.176 | 0.273
28 | ACAAAACAUGAGGAUCACCCAUGUGAGGAUAUGCGAAACAAACAAACAAACAAACAAAGCAGAAGGCACAACAA [Ex 1 Tesla 3] (Eterna round: R96, puzzle: Exclusion 1) |  |  | 0.0156 |  |  | 
29 | UGUACCAUAGGAUAUACAUGAGGAUCACCCAUGUUAAUACGAUAUGUAAUGGUUACUUGUAGAAGGAUGAAAAG [Eternabot (L1) Solution 29] (Eterna round: R97, puzzle: Exclusion 3) | 0.0149 | 0.011 |  |  |  | 
30 | AAGUACCGUCACGAUAGUGAUGGUACAACAAGUAUGUGAACAUGAGGAUCACCCAUGUCCUCUUUUGCUCGUCUUAU [Sensor 3 - 89] (puzzle: Sensor v3, turn-off variant 2) |  |  |  | 0.313 | 0.0223 | 0.309
31 | UUUAAUUUUUUUUUUUUACAAGCUUUUUGCUCGUCUUAUACAUGAGGAUCACCCAUGUGGGUGAGAAGUAAAUUAUC [JMF 48] (puzzle: Sensor v3, turn-off variant 2) |  |  |  | 0.0637 | 0.0146 | 0.224
32 | GACCAACGGGUUUACCUUUACAUGAGGAUCACCCAUGUCGCAAGCUUUUUCUCGGGUCCAAUCUUAUAAAUAUUAAU [Legedi] (puzzle: Sensor v3, turn-off variant 1) |  |  |  | 0.144 | 0.314 | 0.179
33 | UUCCUCGUUGUGAGGAUAUCGUCCUAUUUUUGUUACGAGAAGGCACAUGAGGAUCACCCAUGUUACUUGAUGUU [JR_BMOE4_Sub071] (Eterna round: R96, puzzle: Brourd's mod of Exclusion 4) | 0.188 | 0.026 | 0.0211 |  |  | 
34 | UCUUAUUGCAAGGAUAUGCUUUUUAUUUCUUUUGCAGAAGGUGCAACAUGAGGAUCACCCAUGUUUCCGGGCAU [JR_E6_Sub035] (puzzle: Exclusion 6) |  |  |  |  | 0.0168 | 
